Experimental data reported in patent US20210054055A1.
Read-outs that look alike come from different tables or passages of the source.

How the values were obtained:
[1] = target: Dengue virus serotype 4 (DENV4) virions, envelope protein E (Dengue virus 4)
[2] = target: H/PF/2013 (Zika virus)
[3] = target: Dengue virus serotype 4 (DENV4) virions, envelope protein E (Dengue virus 4); remark: listed apart in the source
[4] = target: Dakar (Zika virus)
[5] = target: MR766
[6] = target: DENV
[7] = target: Zika virus (ZIKV) virions, envelope protein E (Zika virus)
[8] = target: Zika virus (ZIKV) virions, envelope protein E (Zika virus); remark: listed apart in the source

EDE1 mAb C10 (antibody) showed an EC50 (read off the curve) [1] of 0.2 µg/mL, an FRNT50 (focus reduction neutralization on Vero cells) [2] of 16.2 ng/mL and an FRNT50 (focus reduction neutralization on Vero cells) [3] of 88.9 ng/mL. It also gave an FRNT50 (focus reduction neutralization on Vero cells) [4] of 28.5 ng/mL, an FRNT50 (focus reduction neutralization on Vero cells) [5] of 0.2 ng/mL and an EC50 (read off the curve) [6] of 0.08 µg/mL.
Substance “ZKA190, human ZIKV-specific mAb (antibody)” has an IC50 (read off the curve) [7] of 0.07 µg/mL.
1M7 (antibody) was tested, and the IC50 (read off the curve) [8] was 0.09 µg/mL.
Substance EDE1 mAb C8 (antibody) has an IC50 (read off the curve) [8] of 0.2 µg/mL.
In the case of ZKA78 (antibody), the IC50 (read off the curve) [8] is reported as 0.2 µg/mL.
For 2D22 (antibody), the EC50 (read off the curve) [6] was 0.08 µg/mL.
